Measured values from publication PMC13046825, “A gated hydrophobic funnel within BAX binds bioactive lipids to potentiate pro-apoptotic function” (Nature Communications, 2024).

Experiments:
[1] = target: T1, BAX (Homo sapiens, UniProt Q07812); experiment: 1H-15N HSQC NMR chemical shift perturbation; MST; type: binding; design: 15N-labeled BAX WT
[2] = target: T1, BAX; experiment: microscale thermophoresis; type: binding; design: recombinant human BAX WT
[3] = target: T1, BAX; experiment: microscale thermophoresis; also 1H-15N HSQC NMR, FLAMBE, LUV permeabilization; type: binding; design: recombinant human BAX, without a tag or exogenous residues (Alexa Fluor 647-labeled for MST)
[4] = target: T2, BAX^2S (Homo sapiens, UniProt Q07812, C62S/C126S); experiment: thermal shift, FLAMBE and LUV permeabilization with purified BAX^2S (activation); type: biochemical
T2 construct: recombinant human BAX, cysteine-replacement mutant
T2 sequence (Q07812 whole entry C62S/C126S): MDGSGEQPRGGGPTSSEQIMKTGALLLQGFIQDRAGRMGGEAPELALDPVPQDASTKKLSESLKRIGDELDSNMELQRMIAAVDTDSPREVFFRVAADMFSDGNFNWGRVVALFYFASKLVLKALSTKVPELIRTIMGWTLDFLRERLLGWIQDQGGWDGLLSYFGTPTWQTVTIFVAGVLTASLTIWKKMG

[5] = target: 5-TAMRA labeled BAK-BH3 peptide; experiment: FLAMBE (fluorescence polarisation); details: BAKTAMRA 50 nM, read at 60 min, read off a plot

T1 sequence (Q07812 whole entry): as the sequence (Q07812 whole entry C62S/C126S) above, with S62C, S126C counted along it

CCCCCC/C=C/C=O [2t9, 2t-nonenal]
1H-15N HSQC NMR chemical shift perturbation; MST [1]: nonenal and especially pentenal interacted with several accessible regions of BAX

CCCCCCCC/C=C/C=O [2t11, 2t-undecenal]
microscale thermophoresis [2]: When subjected to MST, BAX^WT exhibited altered thermophoresis with each of the alkenals

CCCCCCCCC/C=C/C=O [2t12, 2t-dodecenal]
microscale thermophoresis [2]: When subjected to MST, BAX^WT exhibited altered thermophoresis with each of the alkenals

CCCCCCCCCCCCC/C=C/C=O [2t16, 2-trans-hexadecenal]
EC50 [3]: 0.182 µM
thermal shift, FLAMBE and LUV permeabilization with purified BAX^2S (activation) [4]: BAX^2S remained sensitive to hexadecenal-mediated changes in melting temperature, pore formation, and synergy with BIM‑BH3 peptide

recombinant human BAX, wild type (from UniProt Q07812) L59C; C62S; C126S; L162C
response ([5]; BAXα8 225 nM, 2t16 4.5 μM, no BIM-BH3): 200 mP
response ([5]; BAXα8 225 nM, BIM-BH3 0.15 μM, 2t16 4.5 μM): 260 mP
response ([5]; BAXα8 225 nM, BIM-BH3 0.15 μM, no 2t16): 260 mP
response ([5]; BAXα8 225 nM, no BIM-BH3, no 2t16): 200 mP

recombinant human BAX, wild type (from UniProt Q07812) P168G
response ([5]; BAXP168G 65 nM, 2t16 3 μM, no BIM-BH3): 240 mP
response ([5]; BAXP168G 65 nM, BIM-BH3 0.15 μM, 2t16 3 μM): 300 mP
response ([5]; BAXP168G 65 nM, BIM-BH3 0.15 μM, no 2t16): 310 mP
response ([5]; BAXP168G 65 nM, no BIM-BH3, no 2t16): 260 mP
